Assay results reported in patent publication US20130012693.
pIC50, pKd: −log10 of the molar value.

Assays:
[1] = target: beta-NGF (Homo sapiens) (UniProt P01138); experiment: cell_activity; details: PC12 neurite growth, 0.38 nM NGF
[2] = target: beta-NGF (Homo sapiens) (UniProt P01138); experiment: filter; details: BndU at Z' (n) positions [n positions 30,37,38,43,44,45,51,52,54 = modified dU]; SB17T-0.002, 37 C; Zorbax resin capture

Chain of beta-NGF (Homo sapiens) (P01138 122-241): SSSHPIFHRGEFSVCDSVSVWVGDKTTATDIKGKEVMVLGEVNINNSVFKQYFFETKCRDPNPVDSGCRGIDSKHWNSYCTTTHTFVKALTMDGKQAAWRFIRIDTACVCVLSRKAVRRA

Row | Sequence | pIC50 ([1]; BndU at Z' (n) positions, 3'-idT in cell assays [n positions 3,10,11,16,17,18,24,25,27 = modified dU]) | pKd [2] | pIC50 ([1]; BndU at Z' (n) positions [n positions 30,37,38,43,44,45,51,52,54 = modified dU], 3'-idT)
1 | CATGAGGACTTGGGGTTTAGCCGTTGTG [2426-66-50] | 9.00 |  | 
2 | GAGTGACCGTCTGCCTGCAGCGGGACACATGAGGACTTGGGGTTTAGCCGTTGTGGCACAGAGAAGAAACAAGACC [2426-66] |  | 8.30 | 8.70
